The assay addresses T1, Recombinant human FAP (fibroblast activation protein) (human, UniProt Q12884 26-760).
T1 construct: Bought soluble recombinant protein; Chemically biotinylated for the HTRF screen; also called hFAP; biotinylated human FAP
T1 sequence (looked up): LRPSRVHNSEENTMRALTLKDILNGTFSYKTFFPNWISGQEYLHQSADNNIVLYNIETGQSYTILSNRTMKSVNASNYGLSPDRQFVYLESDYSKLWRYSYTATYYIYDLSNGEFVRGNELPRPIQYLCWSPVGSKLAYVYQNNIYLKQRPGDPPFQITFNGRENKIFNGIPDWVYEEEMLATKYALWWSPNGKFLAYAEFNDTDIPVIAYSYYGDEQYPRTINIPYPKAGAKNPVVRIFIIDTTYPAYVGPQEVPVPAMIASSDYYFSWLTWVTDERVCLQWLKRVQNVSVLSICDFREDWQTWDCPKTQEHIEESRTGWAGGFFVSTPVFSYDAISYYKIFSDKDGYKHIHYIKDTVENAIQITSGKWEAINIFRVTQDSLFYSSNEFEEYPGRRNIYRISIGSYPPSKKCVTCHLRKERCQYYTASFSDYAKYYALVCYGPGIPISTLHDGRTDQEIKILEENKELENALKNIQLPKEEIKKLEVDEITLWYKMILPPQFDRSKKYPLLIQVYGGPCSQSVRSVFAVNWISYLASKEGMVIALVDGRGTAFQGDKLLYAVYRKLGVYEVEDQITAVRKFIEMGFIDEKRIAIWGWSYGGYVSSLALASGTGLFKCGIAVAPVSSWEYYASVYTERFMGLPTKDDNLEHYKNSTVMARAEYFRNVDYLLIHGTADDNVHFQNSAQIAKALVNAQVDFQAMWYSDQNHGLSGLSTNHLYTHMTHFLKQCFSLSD
As to the kind of experiment: SPR (ProteOn), human FAP immobilized on GLC chip. The procedure: Briefly, human FAP was diluted in 10 mM Na-acetate pH 5.3 buffer and covalently immobilized on a GLC chip (BioRad) to a level of around 2000 resonance units (RU). The interaction of ankyrin repeat protein and hFAP was then measured by injecting 200 μl running buffer (PBS, pH 7.4 containing 0.005% Tween 20®) containing serial dilutions of ankyrin repeat proteins covering a concentration range between 30 nM and 0.5 nM (on-rate measurement), followed by a running buffer flow for at least 25 minutes at a constant flow rate of 100 μl/min (off-rate measurement). The regeneration was performed using 15 μl of 10 mM Glycine pH 2 followed by 15 μl of 124 mM H₃PO₄. […] Based on the SPR traces obtained from the on-rate and off-rate measurements, the on- and off-rate of the corresponding ankyrin repeat protein—FAP interaction was determined.
Briefly, mouse FAP was diluted in 10 mM Na-acetate pH5.3 buffer and covalently immobilized on a GLC chip (BioRad) to a level of around 2000 resonance units (RU). The interaction of DARPin® protein #41 and mFAP was then measured by injecting 200 μl running buffer (PBS, pH7.4 containing 0.005% Tween20®) containing serial dilutions of DARPin® protein #41 covering a concentration range between 50 nM and 3 nM (on-rate measurement), followed by a running buffer flow for 30 minutes at a constant flow rate of 100 μl/min (off-rate measurement). […]

B1: DARPin® protein #41 (designed binder)
chain: MRGSHHHHHHGSDLGKKLLEAARAGQDDEVRELLKAGADVNAKDYFSHTPLHLAARNGHLKIVEVLLKAGADVNAKDFAGKTPLHLAANEGHLEIVEVLLKAGADVNAQDIFGKTPADIAADAGHEDIAEVLQKAAGSPTPTPTTPTPTPTTPTPTPTGSDLGEKLLVAALYGQDDEVRILLAAGADVNAKDQWGLTPLHKAALQGHLEIVEVLLKAGADVNAKDERGHTPLHWAARFGHLEIVEVLLKAGADVNAQDQKGYTPADLAALWGHEDIAEVLQKAA
notes: Fusion of a serum albumin-specific and a FAP-specific ankyrin repeat domain
By Kd is commonly meant the equilibrium constant for the complex coming apart. For the molecule B1, the equilibrium dissociation constant (Kd) was 0.264 nM.

(Values after US20220242973A1 (Molecular Partners, published 2022).)
